This is an account of results in US20060039918A1 (University of California, published 2006).

[ ]: non-standard residue; d: D form. The star is where a group is joined. Biotin = O=C1N[C@H]2[C@H](CS[C@H]2CCCCC(=O)*)N1; code J = not defined here

The assay concerns the target T1, HLA DRB1*0401 molecules (biotinylated recombinant HLA-DR4) (human).
T1 construct: Recombinant and biotinylated; also called biotinylated recombinant MHC
The assay is described as follows: loading of biotinylated recombinant HLA-DR4 with peptide for aAPCs and tetramers.

B1: PADRE (-) peptide (UAJAAAATLKAA) (peptide)
peptide: Biotin-[code U]A[code J]AAAATLKAA-NH2
modifications: reading uncertain
notes: Synthetic control peptide used to set the background in the T cell capture assay; also called negative control PADRE (-)
Consider B1, for which the binding result is “binds”.

B2: dnaJP1 peptide (QKRAAYDQYGHAAFE) (peptide)
peptide: Biotin-QKRAAYDQYGHAAFE-NH2
SMILES: C[C@H](NC(=O)[C@H](C)NC(=O)[C@H](Cc1c[nH]cn1)NC(=O)CNC(=O)[C@H](Cc1ccc(O)cc1)NC(=O)[C@H](CCC(N)=O)NC(=O)[C@H](CC(=O)O)NC(=O)[C@H](Cc1ccc(O)cc1)NC(=O)[C@H](C)NC(=O)[C@H](C)NC(=O)[C@H](CCCNC(=N)N)NC(=O)[C@H](CCCCN)NC(=O)[C@H](CCC(N)=O)NC(=O)CCCC[C@@H]1SC[C@@H]2NC(=O)N[C@@H]21)C(=O)N[C@@H](Cc1ccccc1)C(=O)N[C@@H](CCC(=O)O)C(N)=O
notes: Synthetic peptide
As for B2, the binding result is “binds”.
